Assay results published in patent US20220143094A1 (Chugai, published 2022).
Numbering of substitutions follows the chain as printed.

B1: SKA0009H-F760mnN17/SKA0009Ls-k0MT//TR01H113-F760mnP17/L0011-k0a (bispecific antibody, human IgG1, kappa, N297A)
heavy 1: QSVEESGGRLVTPGTSLTLTCTVSGIDLSSYGMGWVRQAPGMGLEYIGIIYAAGRTYYASWVKGRFIISKTSTTVDLEMTSLTTEDTATYFCARHGSWYAGMDLWGPGTLVTVSSASTKGPSVFPLAPSSKSTSGGTAALGCLVKDYFPEPVTVSWNSGALTSGVHTFPAVLQSSGLYSLSSVVTVPSSSLGTQTYICNVNHKPSNTKVDKKVEPKSCDKTHTCPPCPAPELRGGPKVFLFPPKPKDTLMISRTPEVTCVVVDVSHEDPEVKFNWYVDGVEVHNAKTKPREEQYASTYRVVSVLTVLHQDWLNGKEYKCKVSNKALPAPIEKTISKAKGQPREPQVYTLPPSREEMTKNQVSLTCLVKGFYPSDIAVEWESNGQPENNYKTTPPYLDSDGSFFLYSKLTVDKSRWQQGNVFSCSVMHEALHNHYTQESLSLSP
light 1: AIEMTQTPSPVSAAVGGTVSINCQASEDIENYFAWYQQKPGQPPKLLIYDASELASGVPSRFSGSGSGTDFTLTISGVQSDDAATYYCQHADYAASSENTFGGGTEVVVKRTVAAPSVFIFPPSDEQLKSGTASVVCLLNNFYPREAKVQWKVDNALQSGNSQESVTEQDSKDSTYSLSSTLTLSKADYEKHKVYACEVTHQGLSSPVTKSFNRGEC
heavy 2: QVQLVESGGGVVQPGGSLRLSCAASGFTFSNAWMHWVRQAPGKGLEWVAQIKDKSQNYATYVAESVKGRFTISRADSKNSIYLQMNSLKTEDTAVYYCRYVHYAAGYGVDIWGQGTTVTVSSASTKGPSVFPLAPSSKSTSGGTAALGCLVKDYFPEPVTVSWNSGALTSGVHTFPAVLQSSGLYSLSSVVTVPSSSLGTQTYICNVNHKPSNTKVDKKVEPKSCDKTHTCPPCPAPELRGGPKVFLFPPKPKDTLMISRTPEVTCVVVDVSHEDPEVKFNWYVDGVEVHNAKTKPREEQYASTYRVVSVLTVLHQDWLNGKEYKCKVSNKALPAPIEKTISKAKGQPREPQVYTLPPSRKEMTKNQVSLTCLVKGFYPSDIAVEWESNGQPENNYKTTPPYLDSDGSFFLYSKLTVDKSRWQQGNVFSCSVMHEALHNHYTQKSLSLSP
light 2: DIVMTQSPLSLPVTPGEPASISCRSSQPLVHSNRNTYLHWYQQKPGQAPRLLIYKVSNRFSGVPDRFSGSGSGTDFTLKISRVEAEDVGVYYCGQGTQVPYTFGQGTKLEIKRTVAAPSVFIFPPSDEQLKSGTASVVCLLNNFYPREAKVQWKVDNALQSGNSQESVTEQDSKDSTYSLSSTLTLSKADYEKHKVYACEVTHQGLSSPVTKSFNRGEC
notes: Bispecific IgG made by mixing two homomers under 2-MEA reduction; also called anti-silent Fc antibody; silent Fc×CD3
B2: H0000-SG115/GL4-k0a (antibody)
heavy: QVQLVQSGAEVKKPGASVKVSCKASGYTFTDYEMHWIRQPPGQGLEWIGAIDPKTGDTAYSQKFKGRVTLTADKSTSTAYMELSSLTSEDTAVYYCTRFYSYTYWGQGTLVTVSSASTKGPSVFPLAPSSKSTSGGTAALGCLVKDYFPEPVTVSWNSGALTSGVHTFPAVLQSSGLYSLSSVVTVPSSSLGTQTYICNVNHKPSNTKVDKKVEPKSCDKTHTCPPCPAPELRRGPKVFLFPPKPKDTLMISRTPEVTCVVVDVSHEDPEVKFNWYVDGVEVHNAKTKPREEQYNSTYRVVSVLTVLHQDWLNGKEYKCKVSNKGLPSSIEKTISKAKGQPREPQVYTLPPSREEMTKNQVSLTCLVKGFYPSDIAVEWESNGQPENNYKTTPPVLDSDGSFFLYSKLTVDKSRWQQGNVFSCSVLHEALHAHYTRKELSLSP
light: B1 light 2 with P28S, G94S, G96N, Q98H, Y101P
notes: Anti-GPC3 antibody with the SG115 constant region, which is both silent Fc and delta GK-Fc; also called anti-GPC3 silent Fc antibody; anti-GPC3 silent Fc and anti-delta GK-Fc antibody
B3: H0000-G1T3GK/GL4-k0a (antibody, human IgG1, kappa)
heavy: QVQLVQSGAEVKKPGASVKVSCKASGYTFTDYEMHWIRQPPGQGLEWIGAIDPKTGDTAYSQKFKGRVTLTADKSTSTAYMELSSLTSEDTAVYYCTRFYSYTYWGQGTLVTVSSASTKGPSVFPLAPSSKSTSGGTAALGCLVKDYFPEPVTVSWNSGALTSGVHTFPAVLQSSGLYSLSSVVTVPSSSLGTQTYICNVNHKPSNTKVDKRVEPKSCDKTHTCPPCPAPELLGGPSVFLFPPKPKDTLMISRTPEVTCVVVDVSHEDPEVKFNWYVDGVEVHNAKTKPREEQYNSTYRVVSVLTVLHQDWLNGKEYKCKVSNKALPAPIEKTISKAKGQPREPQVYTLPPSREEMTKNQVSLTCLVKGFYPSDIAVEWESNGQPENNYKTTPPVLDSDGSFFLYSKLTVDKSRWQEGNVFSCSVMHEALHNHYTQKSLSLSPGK
light: B1 light 2 with P28S, G94S, G96N, Q98H, Y101P
notes: Control antigen antibody with the same variable regions as m1 and a human IgG1 constant region carrying C-terminal GK; also called anti-GPC3 antibody with C-terminal addition of Gly-Lys; anti-GPC3 antibody having IgG1 constant region having C-terminal GK
B4: YG55H-F760mnN17GK/YG55L-k0//TR01H113-F760mnP17GK/L0011-k0a (bispecific antibody, human IgG1, kappa, N297A)
heavy 1: QSLEESGGRLVTPGGSLTLTCTVSGIDLSNYAVGWVRQAPGKGLEYIGIIYASGSAYYASWAKGRFTISKTSSTTVDLKVTSLTTEDTATYFCARGYGRAFRIWGPGTLVTVSSASTKGPSVFPLAPSSKSTSGGTAALGCLVKDYFPEPVTVSWNSGALTSGVHTFPAVLQSSGLYSLSSVVTVPSSSLGTQTYICNVNHKPSNTKVDKKVEPKSCDKTHTCPPCPAPELRGGPKVFLFPPKPKDTLMISRTPEVTCVVVDVSHEDPEVKFNWYVDGVEVHNAKTKPREEQYASTYRVVSVLTVLHQDWLNGKEYKCKVSNKALPAPIEKTISKAKGQPREPQVYTLPPSREEMTKNQVSLTCLVKGFYPSDIAVEWESNGQPENNYKTTPPYLDSDGSFFLYSKLTVDKSRWQQGNVFSCSVMHEALHNHYTQESLSLSPGK
light 1: AVLTQTPSPVSAAVGGTVTISCQASQSVYNNNFLSWYQQKPGQRPKLLIYDASTLESGVPSRFSGSGSGTQFTLTISSVQCDDAATYYCLGGYDDHDNAFGGGTEVVVKRTVAAPSVFIFPPSDEQLKSGTASVVCLLNNFYPREAKVQWKVDNALQSGNSQESVTEQDSKDSTYSLSSTLTLSKADYEKHKVYACEVTHQGLSSPVTKSFNRGEC
heavy 2: QVQLVESGGGVVQPGGSLRLSCAASGFTFSNAWMHWVRQAPGKGLEWVAQIKDKSQNYATYVAESVKGRFTISRADSKNSIYLQMNSLKTEDTAVYYCRYVHYAAGYGVDIWGQGTTVTVSSASTKGPSVFPLAPSSKSTSGGTAALGCLVKDYFPEPVTVSWNSGALTSGVHTFPAVLQSSGLYSLSSVVTVPSSSLGTQTYICNVNHKPSNTKVDKKVEPKSCDKTHTCPPCPAPELRGGPKVFLFPPKPKDTLMISRTPEVTCVVVDVSHEDPEVKFNWYVDGVEVHNAKTKPREEQYASTYRVVSVLTVLHQDWLNGKEYKCKVSNKALPAPIEKTISKAKGQPREPQVYTLPPSRKEMTKNQVSLTCLVKGFYPSDIAVEWESNGQPENNYKTTPPYLDSDGSFFLYSKLTVDKSRWQQGNVFSCSVMHEALHNHYTQKSLSLSPGK
light 2: B1 light 2
notes: Bispecific IgG made by mixing two homomers under 2-MEA reduction; also called anti-delta GK-Fc antibody; delta GK-Fc×CD3

Assays:
H0000-SG115/GL4-k0a = biological target: B2; test: SPR (Biacore T200), multi-cycle kinetics; anti-GPC3 antibody captured on engineered GPC3 CM4 chip, bispecific antibody as analyte at 15.6-1000 nM
H0000-G1T3GK/GL4-k0a = biological target: B3; test: as above
engineered GPC3 = engineered GPC3 (Homo sapiens (Human), UniProt P51654 25-563); test: SPR (Biacore T200); capture of the antibody on an engineered GPC3 CM4 chip
Chain of engineered GPC3 (P51654 other isoform, or with tags, fused parts or gaps limits assumed): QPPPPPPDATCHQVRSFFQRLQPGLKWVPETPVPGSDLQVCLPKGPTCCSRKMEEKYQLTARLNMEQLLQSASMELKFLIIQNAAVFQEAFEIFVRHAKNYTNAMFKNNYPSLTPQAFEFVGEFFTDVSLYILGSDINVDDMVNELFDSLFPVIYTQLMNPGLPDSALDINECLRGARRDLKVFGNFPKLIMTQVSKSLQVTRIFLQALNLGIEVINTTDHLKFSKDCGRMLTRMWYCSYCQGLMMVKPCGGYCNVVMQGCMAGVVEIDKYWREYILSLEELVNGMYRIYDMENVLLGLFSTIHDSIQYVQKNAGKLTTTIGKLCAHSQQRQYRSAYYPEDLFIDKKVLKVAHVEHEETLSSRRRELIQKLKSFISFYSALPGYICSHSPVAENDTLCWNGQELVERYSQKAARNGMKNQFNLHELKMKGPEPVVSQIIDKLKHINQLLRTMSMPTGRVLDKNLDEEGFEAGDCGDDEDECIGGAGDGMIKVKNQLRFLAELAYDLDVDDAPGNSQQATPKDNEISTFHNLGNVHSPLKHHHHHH

Binder B1 has a Kd (H0000-SG115/GL4-k0a) of less than 0.26 nM, a koff (H0000-SG115/GL4-k0a) of less than 1e-05 s⁻¹ and a kon (H0000-SG115/GL4-k0a) of 38900 M⁻¹ s⁻¹. For the same binder, the kon (H0000-G1T3GK/GL4-k0a) was 2610 M⁻¹ s⁻¹.

B2: binds (engineered GPC3).

B3: binds (engineered GPC3).

For B4, the Kd (H0000-SG115/GL4-k0a) was 41.7 nM, the koff (H0000-SG115/GL4-k0a) was 0.00348 s⁻¹ and the kon (H0000-SG115/GL4-k0a) was 83500 M⁻¹ s⁻¹.
